Binding result and Kd data for one molecule are collected here from patent publication US20130209489A1 (Amgen, published 2013).

For test [1], the target named is T1, Peptide F (LysC peptide, 79-90) (human).
T1 peptide: MSPINMLYFNGK
Kind of test: BIAcore competition: 12A5-5 pre-incubated with the HPLC peptide fraction in solution, then passed over immobilized human myostatin. The procedure: (§1) The strategy for characterizing the epitopes bound by anti-myostatin neutralizing monoclonal antibodies was to use various CNBr—, LysC— and chymotrypsin-generated human myostatin peptides and determine which peptides could be bound by the antibody. In one aspect, this was tested in a BIAcore® competition binding assay where the binding of 12A5-5 to human myostatin immobilized on a BIAcore® chip was determined in the presence or absence of each of the various isolated HPLC peptide fractions. In the absence of any competing peptides, 12A5-5 was able to bind the human myostatin on the chip and produce an RU (resonance unit) response. […] This general procedure was repeated individually for each peptide. […] These binding patterns, coupled with the known identity of the various myostatin peptides were used to determine which regions of myostatin were important (or necessary) for the binding of antibody 12A5-5.
In general terms: In SPR one partner is held on a chip, and binding of the other changes the refractive index at the surface.

Test [2] has as its target T2, Peptide K (reduced LysC peptide, 40-54) (human).
T2 construct: From TCEP reduction of peptide G
T2 peptide: ANYCSGECEFVFLQK
Described as above. The procedure:
as §1

The target in test [3] is T3, Peptide P (chymotryptic peptide, antibody-protected Cys knot, dimer) (human).
T3 construct: Formed when myostatin pre-incubated with 12A5-5 was digested with chymotrypsin
T3 chain 1: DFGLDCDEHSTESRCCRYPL
T3 chain 2: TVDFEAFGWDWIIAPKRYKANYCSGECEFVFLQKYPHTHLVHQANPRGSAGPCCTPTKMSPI
T3 chain 3: GKIPAMVVDRCGCS
Kind of test: BIAcore competition: 12A5-5 pre-incubated with the HPLC peptide fraction in solution, then passed over immobilized human myostatin; low response means the peptide binds the antibody. How it is done: as §1

The target of test [4] is T4, Peptide G (LysC peptide, Cys knot, dimer) (human).
T4 construct: Four LysC peptides held together by disulfide bonds (cystine knot), dimeric through Cys73 (19.5 kD)
T4 chain 1: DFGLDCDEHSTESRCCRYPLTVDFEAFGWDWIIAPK
T4 chain 2: ANYCSGECEFVFLQK
T4 chain 3: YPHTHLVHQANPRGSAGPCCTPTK
T4 chain 4: IPAMVVDRCGCS
The description is as above. The procedure:
as §1

The target in another test is T5, mature human myostatin (human, UniProt O14793 267-375).
T5 construct: they are put on this molecule; also called GDF-8; recombinant mature myostatin
Kind of test: KinExA solution equilibrium assay, myostatin-coated beads. The text has this:
(§2) Solution-based equilibrium-binding assays using KinExA® technology (Sapidyne Instruments, Inc.) are employed to determine the dissociation equilibrium (Kd) of myostatin binding to antibody molecules. This solution-based assay is considered to be more sensitive than the BIAcore® assay in some instances. Reacti-Gel 6×(a highly reactive, cross-linked 6% agarose bead for immobilization of amine-containing ligands; Thermo Scientific Pierce, Rockford, Ill.) is pre-coated with about 50 microG/ml myostatin overnight, and then blocked with bovine serum albumin (BSA; 1 mg/ml). Antibody samples (10 pM, and 30 pM) were incubated with various concentrations (0.5 pM to 5 nM) of myostatin in sample buffer containing 0.1 mg.ml BSA at room temperature for eight hours before being run through the myostatin-coated beads. The amount of the bead-bound antibody is quantified by fluorescent (Cy5) labeled goat anti-human-Fc antibody at 1 mg/ml in SuperBlock® (an optimized protein-based solution for blocking excess binding sites; Thermo Scientific Pierce, Rockford, Ill.). The binding signal is proportional to the concentration of free antibody at equilibrium with a given myostatin concentration. Kd is obtained from the nonlinear regression of the competition curves using a dual-curve one-site homogeneous binding model provided in the KinExA™ software (Sapidyne Instruments, Inc.).
For orientation: Kinetic exclusion samples the free partner from a solution-phase mixture.

The target in the next test is promyostatin (UniProt O14793 24-375, limits assumed). Kind of test: KinExA solution equilibrium assay, promyostatin-coated beads.
Source text: as §2, with “Kd is obtained from the nonlinear regression of the competition curves using a dual-curve one-site homogeneous binding model provided in the KinExA™ software (Sapidyne Instruments, Inc.).” left out
A KinExA™ assay similar to the one previously described was run, using promyostatin instead of mature myostatin. […] The amount of the bead-bound antibody is quantified substantially as previously described.

The target in a further test is T6, GDF11 (UniProt O95390 299-407).
T6 construct: also called growth and differentiation factor 11; BMP-11
T6 sequence (O95390 299-407 limits assumed): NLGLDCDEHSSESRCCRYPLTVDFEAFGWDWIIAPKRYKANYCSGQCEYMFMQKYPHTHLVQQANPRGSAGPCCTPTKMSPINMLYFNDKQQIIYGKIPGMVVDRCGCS
Kind of test: separate experiment, method not named (Biacore section).

B1: anti-myostatin neutralizing monoclonal antibody 12A5-5 (antibody, V domains shown)
VH: EVQLVESGGGLVQPGGSLRLSCAASGFTFSRYWMNWVRQAPGKGLEWVAQIRLKSDNYATHYAESVKGRFTISRDNAKNSLYLQMNSLRAEDTAVYYCTEGLDYWGQGTTVTVSS
VL: DIQMTQSPSSLSASVGDRVTITCKASQDINKYVAWYQQKPGKAPKLLIYYTSWLQPGVPSRFSGSGSGTDFTFTISSLQPEDIATYYCLQYDNLLYTFGQGTKLEIK
notes: in the KinExA assay it was detected with a goat anti-human-Fc antibody, so it carries a human Fc; also called Mab 12A5-5; MAb 12A5-5
The Kd is the equilibrium constant for the complex coming apart. A lower Kd goes with higher affinity. As for B1, the binding result is recorded as “no binding (tested: peptide concentration not printed)” in test [1], “no binding (tested: peptide concentration not printed)” in test [2], “binds” in test [3] and “binds” in test [4]. For the same molecule, the dissociation constant (Kd) in the test with mature human myostatin was around 2 pM; with promyostatin, around 2 pM; in the test with GDF11 it was around 180000 pM.
